The experiment has as its target F-actin from chicken pectoral (skeletal) muscle (chicken) (UniProt P68139). The experiment is described as follows: co-sedimentation; 5 uM F-actin with 0.1-6 uM AS-Cdc8p, 20 mM MOPS pH 7.0, 150 mM NaCl, 2 mM MgCl2, 20 C, 60,000 rpm 30 min; pellets and supernatants on SDS-PAGE, densitometry; Hill equation fit, apparent constant (Kapp).

Regarding “AS-Cdc8p wildtype (Ala-Ser-Cdc8p, S. pombe tropomyosin with AlaSer at the N terminus) (natural protein)”, the Ka was determined as 6.3e+06 M⁻¹.

Source of the values: article PMC3805550.
